Data reported in patent US12297265B2, “Antibody and use thereof” (SICHUAN KELUN-BIOTECH BIOPHARMACEUTICAL CO., LTD., priority 2018, dated 2025).

Target: human Claudin18.2 (Homo sapiens, UniProt P56856)
Experiment: Cellular ELISA on L929-Claudin 18.2 cells
Type: binding
Set-up: expressed in transfected cells; host or cells: L929, infected with pLVX-IRES-puro lentivirus, puromycin-selected monoclonal line; cells were formaldehyde-fixed for the cellular ELISA
Settings: Table 10 experiment
Description: Human Claudin18.2 is a four transmembrane protein and has a complex structure. Cellular ELISA was thus carried out to maintain the structure of Claudin18.2. The stable cell line L929-Claudin 18.2 constructed in Example 1 were used for detection. Specifically, L929-Claudin 18.2 adherent cells were detached by 2 mM EDTA treatment. The cells were resuspended and adjusted to 2×10^5/mL and 100 μL of the resuspension was plated into 96 well plate and incubated overnight at 37° C. The next day, the media was removed, and the plate was washed with PBS once. 100 μL/well 4% formaldehyde was added to the plate. After 30 min of incubation at room temperature, formaldehyde was removed, followed by washing twice with PBS. Blocking buffer (PBS containing 2% BSA) was then added to the plate at 100 μL/well, and incubated at 37° C. for 2 h. After removal of blocking buffer, 100 μL/well of serially diluted antibodies (starting from 1 μM, with 4-fold dilution, for a total of 11 concentrations) were added to the corresponding wells, which were incubated at 37° C. for 2h afterwards. The plate was washed with 250 μL PBST for 5 times, and was allowed to stand for 2 min each time. 100 μL/well of horseradish peroxidase labeled anti-Human IgG secondary antibody (HRP-anti-Human IgG, Jackson ImmunoResearch, 109-035-003) diluted 1:10000 in PBS (containing 2% BSA) was added to the plate. The plate was incubated at 37° C. for 1 h and washed with 250 μL PB ST 6 times, wherein the plate was allowed to stand for 2 min each time. 100 μL/well of TMB solution (Thermo, 34029) was added. The reactions were incubated at 37° C. for 20 min and stopped with 50 μL 2 mol/L H2504. The absorbance at 450 nm was read on a plate reader (MD, SpectraMax M2) and the results were subjected to curve fitting by Graphpad Prism.

B1: 2C6.9-hz11: humanized antibody of 2C6.9; VH SEQ ID NO: 39, VL SEQ ID NO: 41 (antibody, V domains shown)
VH: QVQLQESGPGLVKPSETLSLTCTVSGFSLTRYGVSWIRQPPGKGLEWIGVIWGDGNTNYNPSLKSRVTISKDSSKSQVSLKLSSVTAADTAVYYCARVNFGNALDYWGQGTLVTVSS
VL: DIVMTQSPDSLAVSLGERATINCKSSQSLLNSGNQKNYLTWYQQKPGQPPKLLIYWASTRDSGVPDRFSGSGSGTDFTLTISSLQAEDVAVYYCQNDFIFPLTFGGGTKVEIK
modifications: Heavy chain variable region of humanized antibody 2C6.9hz11; light chain variable region of humanized antibody 2C6.9hz11/2C6.9hz21
Max Signal Value (OD450): 0.8 OD450
